This is an account of results in the nanobody polyreactivity screen of Harvey et al. (2022).

This series is described as follows: yeast display, Sf9 membrane polyspecificity reagent, FACS + sequencing; frameworks hold sequencing errors. The gist of the method: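 After 36–48 hours of galactose induction, yeast (Saccharomyces cerevisiae BJ5465) displaying a synthetic nanobody library were stained at 4 °C for 1 hour with 10% biotinylated, detergent-solubilized Sf9 membrane reagent. Streptavidin microbeads enriched the stained cells before FACS sorting into low and high (top ~1%) gates on anti-HA and streptavidin fluorescence. Each clone's polyreactivity label reflects its gate of origin.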
As to “QVQLVESGGGLVQAGGSLRLSCAASGRIFRGNVMGWYRQAPGKERELVAVIRSSSGRTYYADSVKGRFTISRDNAKNTVYLQMNSLKPEDTAVYYCAAKSVWGQGTQVTVSS”, the “polyreactivity (PSR sort gate)” value is “high polyreactivity”. The result for “QVQLVESGGGLVQAGGSLRLSCAASGRIFRGYAMGWYRQAPGKEREFVDAITKNGGSTYYADSVKGRFTISRDNAKNTVYLQMNSLKPEDTAVYYCAVRAWDPYTGKSEYWGQGTQVTVSS” reads “low polyreactivity”; that for “QVQLVESGGGLVQAGGSLRLSCAASGRIFRGYAMGWYRQAPGKERELVAAISGGGGSTYYADSVKGRFTISRDNAKNTVYLQMNSLKPEDTAVYYCNALRIRGSKVFEGDYWGQGTQVTVSS”, “high polyreactivity”.

For “QVQLVESGGGLVQAGGSLRLSCAASGRIFRGYAMGWYRQAPGKERELVAAISNGGGTNYADTVKGRFTISRDNAKNTVYLQMNSLKPEDTAVYYCATGFLQNYYKYTSSFRFYYWGQGTQVTVSS”, the “polyreactivity (PSR sort gate)” value is “high polyreactivity”. For “QVQLVESGGGLVQAGGSLRLSCAASGRIFRGYAMGWYRQAPGKERELVAAITRGGSTKYADSVKGRFTISRDNAKNTVYLQMNSLKPEDTAVYYCAKDSYPYVPLYRSRSLYGYWGQGTQVTVSS”, the “polyreactivity (PSR sort gate)” value was “high polyreactivity”.

On to “QVQLVESGGGLVQAGGSLRLSCAASGRIFRGYAMGWYRQAPGKERELVATISAIGGSTYADSVKGRFTISRHNAKNTVYLQMNSLKPEDTAVYYCNVRKVYRYQYRFEYWGQGTQVTVSS”, for which the “polyreactivity (PSR sort gate)” value was “high polyreactivity”. As to “QVQLVESGGGLVQAGGSLRLSCAASGRIFRGYGMAWYRQAPGKERELVAAISRGGNTDYADSVKGRFTISRDNANNTVYLQMNSLKPEETAVYYCAVGYVSYRKLYLYNSWGQGTQVTVSS”, the “polyreactivity (PSR sort gate)” value is on record as “high polyreactivity”. For “QVQLVESGGGLVQAGGSLRLSCAASGRIFRGYTMGGYRQAPGKERELVADITKRGGSTDYADSVKGRFTISRDNAKNTVYLQMNSLKPEDTEVYSCAARGPTFGVDYGYWGQGTQVTGSS”, the “polyreactivity (PSR sort gate)” value is reported as “high polyreactivity”. In the case of “QVQLVESGGGLVQAGGSLRLSCAASGRIFRGYVMGWYIQAPGKERELVAAISINGGRTYYADSVKGRFTISRDNAKNTVYLQMNSLKPEDTAVYYCAAEPIYFRGLYYYWGLGTQVTVSS”, the “polyreactivity (PSR sort gate)” value is listed as “high polyreactivity”. As for “QVQLVESGGGLVQAGGSLRLSCAASGRIFRHNAMGWYRQAPGKERELVDAITSRGGTYNAHSVKGRFTISRDNAKITVFLQMTSLNPEETAVYFCNADEALYSSGNKYDYWGQGTQVSVSS”, the “polyreactivity (PSR sort gate)” value is listed as “low polyreactivity”.

As for “QVQLVESGGGLVQAGGSLRLSCAASGRIFRHYAMGWYRQAPGKERELVAAISGGGGRTYYADSVKGRFTISRDNAKNTVYLQMNSLKPEDTAVYYCAKRPSYAYSRYRKGHDYWGQGTQVTVSS”, the “polyreactivity (PSR sort gate)” value was “high polyreactivity”. Consider “QVQLVESGGGLVQAGGSLRLSCAASGRIFRINGMGWYRQAPGKEREFVAAITSGGGTYYADSVKGRFTISRDNAKNTVYLQMNSLKPEDTAVYYCAAPSYRTRYYYWGQGTQVTVSS”, for which the “polyreactivity (PSR sort gate)” value is recorded as “high polyreactivity”. The result for “QVQLVESGGGLVQAGGSLRLSCAASGRIFRINGMGWYRQAPGKEREFVAAITSGGGTYYADTVKGRFTISRDNAKNTVYLQMNSLKPEDTAVYYCAAPSYRTRYYYWGQGTQVTVSS” reads “high polyreactivity”; that for “QVQLVESGGGLVQAGGSLRLSCAASGRIFRIYAMGWNRQAPGKERELVARLTYSGGSTYYADSVKGRFTISRDNAKNTVYLQMNSLKPEDTAVYYCAADWLGYQYGYWGQGTQVTVSS”, “low polyreactivity”; that for “QVQLVESGGGLVQAGGSLRLSCAASGRIFRIYAMGWYRQAPGKERELVASISDRGTRTYYADSVKGRFTISRDNAKNTVYLQMNSLKPEDTAVYYCAASTYTKFHTYYKSQASDYWGQGTQVTVSS”, “high polyreactivity”. Regarding “QVQLVESGGGLVQAGGSLRLSCAASGRIFRKYAMGWYRQAPGKERELVAAINWSGGSTYYADSVKGRFTISRDNAKNTVYLQMNSLKPEDTAVYYCAARSPKAERDYWGQGTQVTVSS”, the “polyreactivity (PSR sort gate)” value is on record as “high polyreactivity”. For “QVQLVESGGGLVQAGGSLRLSCAASGRIFRKYAMGWYRQAPGKERELVAAISGSGGSTTYADSVKGRFTISRDNAKNTVYLQMNSLKPEDTAVYYCAARGYSLYGYPYYYWGQGTQVSVSS”, the “polyreactivity (PSR sort gate)” value is “high polyreactivity”.

Take “QVQLVESGGGLVQAGGSLRLSCAASGRIFRKYAMGWYRQAPGKERELVAGITWRGTSTYYADSVKGRFTISRDNAKNTVYLQMNSLKPEDTAVYYCAAEWKGYYVHDYWGQGTQVTVSS”: the “polyreactivity (PSR sort gate)” value is recorded as “high polyreactivity”. In the case of “QVQLVESGGGLVQAGGSLRLSCAASGRIFRKYTMGWYRQAPGKERELVAAITWSGGSTYYADSVKGRFTISRDNAKNTVYLQMNSLKPEDTAVYYCAARSIGGYRAVDTYYYWGHGTQVTVSS”, the “polyreactivity (PSR sort gate)” value is reported as “high polyreactivity”. For “QVQLVESGGGLVQAGGSLRLSCAASGRIFRKYVMGWYRQAPGKERELVASITTSGDSTYYADSVKGRFTISRDNAKNTVYLQMNSLKPEDTAVYYCAARSYRGRRYDYWGQGTQVTVSS”, the “polyreactivity (PSR sort gate)” value is given as “high polyreactivity”. Take “QVQLVESGGGLVQAGGSLRLSCAASGRIFRLYAMGWYRQAPGKEREFVATITWIGGRTYYADSVKGRFTISRDTAKNTVYLQMNSLKPEDTAVYYCAADPGYTYEYWGQGTQVTVSS”: the “polyreactivity (PSR sort gate)” value is listed as “low polyreactivity”. The result for “QVQLVESGGGLVQAGGSLRLSCAASGRIFRLYVMGWYRQAPGKERELVATISSRGGSTYYADSVKGRFTISRDNAKNTVYLQMNSLKPEDTAVYYCAAVSRYRYGYDYWGQGTQVTVSS” reads “high polyreactivity”; that for “QVQLVESGGGLVQAGGSLRLSCAASGRIFRPYAMGWYRQAPGKERELVASMSWRGSSTYYADSVKGRFTISRDNAQNTVYLQMNSLKPEDTAVYYCAARRYPTSGYGYWGQGTQVTVSS”, “high polyreactivity”.

Regarding “QVQLVESGGGLVQAGGSLRLSCAASGRIFRPYTMVWSRQAPGKERELVAAINSSGGRTYYADSVKGRFTISRDNAKNTVYLEMNSLKPEDTAVYYCAVGWVFYRASNMNYWGQGTQVTVSS”, the “polyreactivity (PSR sort gate)” value is on record as “high polyreactivity”. The result for “QVQLVESGGGLVQAGGSLRLSCAASGRIFRQKAMGWYRQAPGKERELVASISSGGNTYYADSVKGRFTISRDNAKNNVYLQMNSLKPEDTAVYYCAAAKQRYYRWWTTPGYDYWGQGTQVTVSS” reads “low polyreactivity”; that for “QVQLVESGGGLVQAGGSLRLSCAASGRIFRRNAMGWSRQAPGNERELVAAISSSGGRTYYADSVKGRFTISRDNAKNTVYLEMNSLKPEDTAVYYCAARIRTVAHVDYDYWGQGTQVTVSS”, “high polyreactivity”; that for “QVQLVESGGGLVQAGGSLRLSCAASGRIFRRNAMGWYRQAPGKERDLVAAITYSGTRTYYADSVKGRFTISRDNAKITVYLQMNSLKPEDTAVYYCNAGVGYFVGTYYGFLPYDYWGQGTQVTVSS”, “high polyreactivity”. The result for “QVQLVESGGGLVQAGGSLRLSCAASGRIFRRNAMGWYRQAPGKEREFVATITSGGSTFYADSVKGRFTISRDNAKNTVYLQMNSLIPEDTAVYYCAAPYYNTPFHTPNYSWGQGTQVTVSS” reads “low polyreactivity”; that for “QVQLVESGGGLVQAGGSLRLSCAASGRIFRRNAMGWYRQAPGKERELVAAISTRGSSTYYADSVKGRFTISRDNAKNTVYLQMNSLKPEDTAVYYCAADAYFIYSRYWYDYWGQGTQVTVSS”, “high polyreactivity”. In the case of “QVQLVESGGGLVQAGGSLRLSCAASGRIFRRNVMGWYRQAPGKERELVAAITGSGSSTYYADSVKGRFTISRDNAKNTVYLQMNSLKPVDTAVYYCATKWRFKLGDYWGQGTQVTVSS”, the “polyreactivity (PSR sort gate)” value is on record as “high polyreactivity”.

Take “QVQLVESGGGLVQAGGSLRLSCAASGRIFRRYAMGWYRQAPGKERELVAAINGRGTTTYYADSVKGRFTISRDNAKNTVYLQMNSLKPEDTAVYYCAAENTIRYDREYDYWGQGNQVTVSS”: the “polyreactivity (PSR sort gate)” value is given as “high polyreactivity”.

Regarding “QVQLVESGGGLVQAGGSLRLSCAASGRIFRRYAMGWYRQAPGKERELVAAISSTGGNTYYADSVKGRFTISRDNAKNTVYLQMNSLKPEDTAVYYCATRAFYLRGNGYWGQGTQVTVSS”, the “polyreactivity (PSR sort gate)” value is reported as “high polyreactivity”. With “QVQLVESGGGLVQAGGSLRLSCAASGRIFRSNAIGWYRQAPGKERELVSVITWCGGSTYYADSVKGRFTITRDTAKNTVYIQMNSLKPEDTAVYYCAKRRAAVNGRSYYYYWGQGTQVTVSS”, the “polyreactivity (PSR sort gate)” value is “high polyreactivity”.

As to “QVQLVESGGGLVQAGGSLRLSCAASGRIFRSNAMGWYRQAPGKERELVATITSSGGRTYYADSVKGRFTISRDNAKNTVYLQMNSLKPEDTAVYYCNAQQRTRGQKAQWVRDEYWGQGTQVTVSS”, the “polyreactivity (PSR sort gate)” value is on record as “low polyreactivity”. Regarding “QVQLVESGGGLVQAGGSLRLSCAASGRIFRSNTMGWYRQAPGKERELVAAITRRGGSTYYADSVKGRFTISRDNAKNTVYLQLNSLKPEDTAVYYCAAVKSYYSEYGYWGQGTQGTVSS”, the “polyreactivity (PSR sort gate)” value was “high polyreactivity”.

On to “QVQLVESGGGLVQAGGSLRLSCAASGRIFRSYAMGWSIQAPGKERELVAAITSGGSTNYADSVKGRFTISRDNAKNTVYLQMNSLKPEDTAVYYCAARWPWYGKLRYYYWGQGTQVTVSS”, for which the “polyreactivity (PSR sort gate)” value was “high polyreactivity”. Turning to “QVQLVESGGGLVQAGGSLRLSCAASGRIFRSYAMGWYRQAPGKERELFAAISYSGGSTYYADSVKGRFTISRDNAKNTVYLQMNSLKPEDTAVYYCAALPGERKYIYYGYDYWGQGTQVTVSS”, the “polyreactivity (PSR sort gate)” value is reported as “high polyreactivity”. On to “QVQLVESGGGLVQAGGSLRLSCAASGRIFRSYAMGWYRQAPGKERELVAAISSGGSTNYADSVKGRFTISRDNAKNTVYLQMNSLKPEDTAVYYCAASYLYEWSRFVYDGLYYWGQGTQVTVSS”, for which the “polyreactivity (PSR sort gate)” value is “low polyreactivity”. With “QVQLVESGGGLVQAGGSLRLSCAASGRIFRSYAMGWYRQAPGKERELVASISWSGVSTSYADSVKGRFTISRDIAKNTVYLQMNSLKPEDTAVYFCAARSWYVGSGPFNYWGQGTQVTVSS”, the “polyreactivity (PSR sort gate)” value is on record as “high polyreactivity”. In the case of “QVQLVESGGGLVQAGGSLRLSCAASGRIFRTYAMGWYRQAPGKERELVAAINSGGTTYYADSVKGRFTISRDNAKNTVYLQMNSLKPEDTAVYYCNAEYYYAFLRLWYDYWGQGTQVTVSS”, the “polyreactivity (PSR sort gate)” value was “high polyreactivity”. On to “QVQLVESGGGLVQAGGSLRLSCAASGRIFRTYTMGWYRQAPGKERELVAAITSGSSTYYADSVKGRFTISRDNAKNTVYLQMHSLKPEDTAVYYCATEWSIGRHLYTYNYWGPGTQVTVSS”, for which the “polyreactivity (PSR sort gate)” value is given as “high polyreactivity”.
